Measured values: publication PMC9940316 (2023)

Molecular target: human plasma IgG1 (human, UniProt P01857 = IgG part)
Test: SPR; pH 7

Kd: 1.3 µM
B1: FcγRIIa (receptor)
chain: QAAAPPKAVLKLEPPWINVLQEDSVTLTCQGARSPESDSIQWFHNGNLIPTHTQPSYRFKANNNDSGEYTCQTGQTSLSDPVHLTVLSEWLVLQTPHLEFQEGETIMLRCHSWKDKPLVKVTFFQNGKSQKFSHLDPTFSIPQANHSHSGDYHCTGNIGYTLFSSKPVTITVQVPSMGSSSPMGIIVAVVIATAVAAIVAAVVALIYCRKKRISANSTDPVKAAQFEPPGRQMIAIRKRQLEETNNDYETADGGYMTLNPRAPTDDDKNIYLTLPPNDHVNSNN
